Earlier results, collected in publication PMC9292820 (British Journal of Clinical Pharmacology, 2021).

Legend:
[1] = system: angiotensin II (Ang‐II); conditions: rats, bolus injection
[2] = system: healthy male participants

Substance	levels of angiotensin II (Ang‐II) [1]	decrease in pupil/iris ratio (miosis) [2]
opiorphin (QRFSR; Opiorphin; UniProt Q99935 22-26, looked up)	increased levels	–
buprenorphine	–	up to 50%
